Test results as given in US20210214460A1 (AstraZeneca / MedImmune, published 2021).

T1: membrane-bound human BCMA (human, UniProt Q02223 1-184)
T1 sequence (looked up): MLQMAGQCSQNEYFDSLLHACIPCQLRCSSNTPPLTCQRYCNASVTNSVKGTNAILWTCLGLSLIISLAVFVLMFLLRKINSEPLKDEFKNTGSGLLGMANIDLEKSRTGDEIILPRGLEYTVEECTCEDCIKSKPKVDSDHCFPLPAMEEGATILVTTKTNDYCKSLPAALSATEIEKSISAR

T2: soluble BCMA (sBCMA) in conditioned media collected from Ad293 cells expressing human BCMA (human, UniProt Q02223 1-54)
T2 sequence (looked up): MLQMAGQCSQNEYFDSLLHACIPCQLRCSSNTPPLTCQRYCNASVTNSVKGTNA

T3: monomeric human sBCMA (GenScript) (human, UniProt Q02223 1-54)
T3 construct: extracellular domain; also called monomeric BCMA; monomeric (soluble) BCMA
T3 sequence (looked up): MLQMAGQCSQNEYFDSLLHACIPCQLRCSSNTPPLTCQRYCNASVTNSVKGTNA


Experiments:
[1] = biological target: T1, membrane-bound human BCMA; experiment: cell-based or functional assay
[2] = biological target: T2, soluble BCMA (sBCMA) in conditioned …; experiment: cell-based or functional assay
[3] = biological target: T1, membrane-bound human BCMA; experiment: cell-based or functional assay; remark: listed apart in the source
[4] = biological target: T3, monomeric human sBCMA (GenScript); experiment: SPR (ProteOn XPR36), antibody captured by anti-Fc, sBCMA 100-6.25 nM as analyte
Protocol: The binding of 15B2GL monoclonal antibody and optimized clones I09, L15, P10, N22, and M02 (described in Example 1) was assessed using monomeric human sBCMA (GenScript, Piscataway, N.J.) using a ProteOn™ XPR36 instrument (Bio-Rad, Hercules, Calif.). The binding of J6M0 also was assessed for comparison. Standard amine coupling was used to immobilize 25 μg/ml anti-Fc polyclonal antibody (Jackson ImmunoResearch, West Grove, Pa.) prepared in 10 mM sodium acetate buffer (pH 4.5) to the surface of a ProteOn™ GLC biosensor chip (Bio-Rad, Hercules, Calif.) pre-activated with 20 mM EDAC (1-ethyl-3-(3-dimethylaminopropyl)carbodiimide hydrochloride) and 5 mM Sulfo-NHS (N-hydroxysulfosuccinimide) at a density of ˜200-600 resonance units (RU). 15B2GL, I09, L15, P10, N22, M02, and J6M0 were subsequently injected at a concentration of 1 μg/ml for capture by the immobilized anti-Fc polyclonal antibody. The sensorgram was recorded by flowing two-fold serial dilutions of sBCMA prepared in PBS (pH 7.4) with 0.005% (v/v) Tween®-20, ranging from 100-6.25 nM, over the captured surface for 150 seconds at 75 μL/minute with dissociation time of 600 seconds. ProteOn™ data analysis software was used to analyze the data.

[5] = biological target: T1, membrane-bound human BCMA; experiment: flow cytometry on MM.1S cells (endogenous BCMA), printed as apparent affinity
Protocol: (§1) Binding of 15B2GL, I09, L15, and J6M0 to membrane-bound human BCMA was evaluated using flow cytometry in multiple myeloma and plasma cell leukemia cell lines that endogenously express BCMA (NCI-H929 and MM.1S, respectively). Binding of 15B2GL, 109, L15 to membrane-bound human BCMA was also evaluated in Ad293 cells expressing human BCMA. Binding assays were performed by incubating the anti-BCMA antibodies with 200,000 cells for 30 minutes at 4° C. followed by two washes with PBS+2% FBS (FACS Buffer). A range of antibody concentrations were evaluated using a 12-point, 3-fold dilution series. Cells were then incubated with 5 ug/mL goat-anti human IgG-AF647 secondary antibodies (Thermo Fisher Scientific, Waltham, Mass.) at 4° C., followed by two washes in PBS+2% FBS. Cells were resuspended in 200 uL PBS+2% FBS+DAPI.
(§2) Fluorescence of live, single cells was measured using a BD Biosciences LSRII cytometer and BD FACSDiva™ software (BD Biosciences, San Jose, Calif.). Data were analyzed using FlowJo™ software (FlowJo, LLC, Ashland, Oreg.). Mean fluorescence intensity values were used to determine percentage bound and EC50 was determined using Prism™ software (GraphPad Software Inc, La Jolla, Calif.).

[6] = biological target: T1, membrane-bound human BCMA; experiment: flow cytometry on NCI-H929 cells (endogenous BCMA), printed as apparent affinity
Protocol: as §1, §2

[7] = biological target: T1, membrane-bound human BCMA; experiment: flow cytometry on Ad293 cells expressing human BCMA, printed as apparent affinity
Protocol: as §1, §2

Binder | IC50 (ng/mL) of killing of MM.1S cells with 0 ng/mL sBCMA [1] | IC50 (ng/mL) of killing of MM.1S cells with 75 ng/mL sBCMA [1] | IC50 (ng/mL) of killing of MM.1S cells with 270 ng/mL sBCMA [1] | IC50 (ng/mL) of killing of MM.1S cells with 720 ng/mL sBCMA [1] | Fold loss of potency, killing of MM.1S cells with 0 ng/mL sBCMA (reference) [2] | Fold loss of potency, killing of MM.1S cells with 75 ng/mL sBCMA [2] | Fold loss of potency, killing of MM.1S cells with 270 ng/mL sBCMA [2] | Fold loss of potency, killing of MM.1S cells with 720 ng/mL sBCMA [2] | Kd [4] | further results
15B2GL-SG3249 antibody-drug conjugate (antibody, V domains shown, PBD payload SG3249 conjugated site-specifically; residue not stated; DAR 1.82) VH: EVQLVESGGGLVKPGGSLRLSCAASGFTFRSYSMNWVRQAPGKGLEWVSSISGSSNYIYYADSVKGRFTISRDNAKNSLYLQMNSLRAEDTAVYYCARGGNYYVEYFQYWGQGTLVTVSS VL: EIVLTQSPGTLSLSPGERATLSCRASQYISSNYLAWYQQKPGQAPRLLIYGASNRATGIPDRFSGSGSGTDFTLTISRLEPEDFAVYYCQQYGSSPITFGQGTKLEIK | 14.5 ng/mL | 16.1 ng/mL | 22.9 ng/mL | 29.1 ng/mL | 1 fold | 1.11 fold | 1.58 fold | 2.01 fold | – | IC50 (ng/mL), in vitro cytotoxicity (CellTiter-Glo, 96 h), EJM cells [3]: 153 ng/mL; IC50 (ng/mL), in vitro cytotoxicity (CellTiter-Glo, 96 h), JJN-3 cells [3]: 36.3 ng/mL; IC50 (ng/mL), in vitro cytotoxicity (CellTiter-Glo, 96 h), L-363 cells [3]: 31.4 ng/mL; IC50 (ng/mL), in vitro cytotoxicity (CellTiter-Glo, 96 h), MM.1R cells [3]: 8.64 ng/mL; IC50 (ng/mL), in vitro cytotoxicity (CellTiter-Glo, 96 h), MM.1S cells [3]: 26.8 ng/mL; IC50 (ng/mL), in vitro cytotoxicity (CellTiter-Glo, 96 h), NCI-H929 cells [3]: 5.99 ng/mL; IC50 (ng/mL), in vitro cytotoxicity (CellTiter-Glo, 96 h), OPM-2 cells [3]: 201 ng/mL; IC50 (ng/mL), in vitro cytotoxicity (CellTiter-Glo, 96 h), U266B1 cells [3]: 39.7 ng/mL
I09-SG3249 antibody-drug conjugate (antibody, V domains shown, PBD payload SG3249 conjugated site-specifically; residue not stated; DAR 1.82) VH: EVQLVESGGGLVKPGGSLRLSCAASGFTFSSYSMNWVRQAPGKGLEWVSSISGSSNYIYYADSVKGRFTISRDNAKNSLYLQMNSLRAEDTAVYYCARGGNYFVEYFQQWGQGTLVTVSS VL: EIVLTQSPGTLSLSPGERATLSCRASQYISSNYLAWYQQKPGQAPRLLIYGASNRATGIPDRFSGSGSGTDFTLTISRLEPEDFAVYYCQQYSSDPITFGQGTKLEIK | 2.81 ng/mL | 3.79 ng/mL | 5.55 ng/mL | 16.2 ng/mL | 1 fold | 1.35 fold | 1.98 fold | 5.75 fold | – | –
N22 (lead optimized clone of 15B2GL) (antibody, V domains shown, Cloned into an IgG mammalian expression vector ("Maia") designed for ADC conjugation) VH: EVQLVESGGGLVKPGGSLRLSCAASGFTFSSYSMNWVRQAPGKGLEWVSSISGSSNYIYYADSVKGRFTISRDNAKNSLYLQMNSLRAEDTAVYYCARGGNYFVEYFQYWGQGTLVTVSS VL: EIVLTQSPGTLSLSPGERATLSCRASQYISSNYLAWYQQKPGQAPRLLIYGASNRATGIPDRFSGSGSGTDFTLTISRLEPEDFAVYYCQQYSSSPITFGQGTKLEIK | – | – | – | – | – | – | – | – | 16 nM | –
P10 (lead optimized clone of 15B2GL) (antibody, V domains shown, Cloned into an IgG mammalian expression vector ("Maia") designed for ADC conjugation) VH: EVQLVESGGGLVKPGGSLRLSCAASGFTFRSYSMNWVRQAPGKGLEWVSSISGQSNYIYYADSVKGRFTISRDNAKNSLYLQMNSLRAEDTAVYYCARGGNYYVEYFQYWGQGTLVTVSS VL: EIVLTQSPGTLSLSPGERATLSCRASQYISSNYLAWYQQKPGQAPRLLIYGASNRATGIPDRFSGSGSGTDFTLTISRLEPEDFAVYYCQQYTDSPITFGQGTKLEIK | – | – | – | – | – | – | – | – | 5.3 nM | –
I09 (lead optimized clone of 15B2GL) (antibody, V domains shown, Cloned into an IgG mammalian expression vector ("Maia") designed for ADC conjugation; also called 109 [sic]) VH: EVQLVESGGGLVKPGGSLRLSCAASGFTFSSYSMNWVRQAPGKGLEWVSSISGSSNYIYYADSVKGRFTISRDNAKNSLYLQMNSLRAEDTAVYYCARGGNYFVEYFQQWGQGTLVTVSS VL: EIVLTQSPGTLSLSPGERATLSCRASQYISSNYLAWYQQKPGQAPRLLIYGASNRATGIPDRFSGSGSGTDFTLTISRLEPEDFAVYYCQQYSSDPITFGQGTKLEIK | – | – | – | – | – | – | – | – | 9.8 nM | EC50 [5]: 4.8 nM; EC50 [6]: 5.4 nM; EC50 [7]: 5.3 nM
